Test results from the nanobody polyreactivity screen of Harvey et al. (2022).

Assay: yeast display, Sf9 membrane polyspecificity reagent, FACS + sequencing; frameworks hold sequencing errors
Outline: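 After 36–48 hours of galactose induction, yeast (Saccharomyces cerevisiae BJ5465) displaying a synthetic nanobody library were stained at 4 °C for 1 hour with 10% biotinylated, detergent-solubilized Sf9 membrane reagent. Streptavidin microbeads enriched the stained cells before FACS sorting into low and high (top ~1%) gates on anti-HA and streptavidin fluorescence. Each clone's polyreactivity label reflects its gate of origin.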

QVQLVESGGGLVQAGGSLRLSCAASGYTFWQYAKGWYRQAPGKERELVVTITSRGGSTYYADSVKGRFTISRDNAKNTVYLHMNSLKPEDTAVYYCNARRRYSTRRSDYWGQGTQVTVSS
polyreactivity (PSR sort gate): high polyreactivity

QVQLVESGGGLVQAGGSLRLSCAASGYTFYAYAMGWYRQAPGTERELVAAITSGSSTYYADSVKGRFTISRDNAKNTVYLQMNSLKPEDTAVYYCSAEVFPGYDYWGQGTQVTVSS
polyreactivity (PSR sort gate): low polyreactivity

QVQLVESGGGLVQAGGSLRLSCAASGYTFYDNAMGWYRQAPGKEREFVASITWSGGSTYYADSVKGRVTISRDNAKNTVYLQMNSLKPEDTAVYYCAAESWFKYDYWGQGTQVTVSS
polyreactivity (PSR sort gate): low polyreactivity

QVQLVESGGGLVQAGGSLRLSCAASGYTFYINGMGWSRQAPGKERELVAVITWSSGSTYYADSVKGRFTISRDNAKNTVYLQMKSLKPEDTAVYYCAADVTYEDGAWTLQYDYWGQGTQVTVSA
polyreactivity (PSR sort gate): high polyreactivity

QVQLVESGGGLVQAGGSLRLSCAASGYTFYIYAMGWYIQAPGKERELVAAISWTDGSTYYADSVKGRFTISRDNAMNSVYLQMNSLKPEHTAVYYCAKTSLYAGAKEYDYWGQGTQVTVSS
polyreactivity (PSR sort gate): low polyreactivity

QVQLVESGGGLVQAGGSLRLSCAASGYTFYQNTMGWYRQAPGKERELVADITRRGGSTYYADSVKGRFTISRDNAKNTVYLQINSLKPEDTAVYYCAARYGPWTGYATYRYASSRYNYWGQGTQVTVSS
polyreactivity (PSR sort gate): high polyreactivity

QVQLVESGGGLVQAGGSLRLSCAASGYTFYRNAMGWYRQAPGKERELVAAIRDDGSTYYADSVKGRFTISRDNAKNTVYLQMNSLKPEDTAVYYCAAAIPRQYWFGISHRRYYYWGQGTQVTVSS
polyreactivity (PSR sort gate): low polyreactivity

QVQLVESGGGLVQAGGSLRLSCAASGYTFYSNAMGWYRQAPRKERELVASIRSRGRSTYYADSVKGRFTISRDNAKNTVDLQMNSLKPEDTAVYYCAALPNKPAVYAYDYWGQGTQVTVSS
polyreactivity (PSR sort gate): low polyreactivity

QVQLVESGGGLVQAGGSLRLSCAASGYTFYYAMGWYRQAPGKERELVAAISAGGGRTYYADSVKGRFTISRDNAKNTDYLQMNSLKPEDTAVYYCNRVYRLTAYGYDYWGQGTQVTVSS
polyreactivity (PSR sort gate): high polyreactivity

QVQLVESGGGLVQAGGSLRLSCAASGYTIESYTMGWYREAPGKEREFVAVISSSDTSTSYADSVKGRFTISRDNAKNTVYLQMNSLKPEDTAFYYCAAYSSPYYITYYWYNYDYWGQGTQVTVSS
polyreactivity (PSR sort gate): low polyreactivity

QVQLVESGGGLVQAGGSLRLSCAASGYTIIVNAMGWYRQAPGKERELVAAISWSSVSTYYADSVKGRFTISRDNAKNTVYLQMNSLKPEDTAVYYCAAEGYDYSQWFDYWGQGTQVTASS
polyreactivity (PSR sort gate): high polyreactivity

QVQLVESGGGLVQAGGSLRLSCAASGYTIRYYAMGWYRQAPGKERELVAAISYSGGRTYYADSVKGRFTISRDNAKNTDYLQMNSLKPEDTAVYYCNAGYYSYRYRYGYDYWGQGTQVTVSS
polyreactivity (PSR sort gate): high polyreactivity

QVQLVESGGGLVQAGGSLRLSCAASGYTLDGYAMGWYRQAPGKEREFVAAIPFRGGGTYYADSVKGRFTISRDNAKNTDYLQMNSLKPEDTAVYYCNADTYDPFPWGSDYWGQGTQVTVSS
polyreactivity (PSR sort gate): high polyreactivity

QVQLVESGGGLVQAGGSLRLSCAASGYTLGPNTMGWYRQAPGKERELVATITYSGGSTYYADSVKGRFTISRDNAKNTVYLQMNSLKPEDTAVYYCAARYGSRRIPGSLGYWGQGTQVTVSS
polyreactivity (PSR sort gate): high polyreactivity

QVQLVESGGGLVQAGGSLRLSCAASGYTLGVNAMGWSRQAPGKERELVAAINYIDTRTYYADSVKGRFTISRDNAKNTVYLKLNSLKPEDTAVYYCAARPYVPWVKRYYYWGQGTQVTVSS
polyreactivity (PSR sort gate): low polyreactivity

QVQLVESGGGLVQAGGSLRLSCAASGYTLRPNGMGWYRQAPGKERELVAAISSGGSTYYADSVKGRFTISRDNAKNTVYLQMISLKPEDTAVYYCAAEYWYDYWGQGTQVTVSS
polyreactivity (PSR sort gate): low polyreactivity

QVQLVESGGGLVQAGGSLRLSCAASGYTSRSNAMGWYRQAPGKERELVAAIRGGGNTKYADSVKWRFTISRDNANNTVYLQMNSLKPEDTAVYYCAVVTGSFRTRYTYYYWGQGTQVTVSS
polyreactivity (PSR sort gate): high polyreactivity

QVQLVESGGGLVQAGGSLRLSCAASGYTSVGNAMGWYRPAPWKERELVAAITYNGGNTYYADSVKGRFRISRDNAKNTVYLQMNSLKPEDTAVSYCATDSQELASSRFDYWGQGTQVTVSS
polyreactivity (PSR sort gate): low polyreactivity

QVQLVESGGGLVQAGGSLRLSCAASGYTSYTYTMGWYRQAPGKDRELVAAISRRSDSTYSDSVKGRVTISRDNAKNSVYLQMNSLKPEDTAVYYCAAVRVSYRSLSKSYYWGQGTQVTVSS
polyreactivity (PSR sort gate): high polyreactivity

QVQLVESGGGLVQAGGSLRLSCAASGYTYSDNAMGWYRPAPGKERELVAAITSGVSTYYADSVKGRFTISRDNAKNTVYLQMNSPKPEDTAVYYCAKDVAVYADLYQGAPYGYWGQGTQVTVST
polyreactivity (PSR sort gate): low polyreactivity

QVQLVESGGGLVQAGGSLRLSCAASISSINAMGWYRQAPGKERELVAAIRWSGSSTYYADSVKGRFTISRDNAKNTVYLQMNSLKPEDTAVYYCAADTTTGDRGFDYWGQGTQVTVSS
polyreactivity (PSR sort gate): high polyreactivity

QVQLVESGGGLVQAGGSLRLSCAASRGIFWVYAMGWYRQATGKEREMVAAISNSDTSTSYADSVKGRFTISRDNAKNTVYLQMNSLKPEDTALYYCNADSPSLSGDYWGQGTQVTVSS
polyreactivity (PSR sort gate): low polyreactivity

QVQLVESGGGLVQAGGSLRLSCAASRLTFAGNAMGWYRQAPGKEREFVATITWSDGSTRYADSVKGRFTISRDNAKNSVYLQMNSLKPEDTAVSYCNTQYPDYFYEFNYWGQGTQVTVSW
polyreactivity (PSR sort gate): low polyreactivity

QVQLVESGGGLVQAGGSLRLSCAASRLTFRYYAMGWYRKAPGKERELVAAISSRGASTYYADSVKGRFTISRDNAKNTVYLQMNSLKPEDTAVYNCAVRTYVYHWSFSSLPYDYWGQGTQVTVSS
polyreactivity (PSR sort gate): high polyreactivity

QVQLVESGGGLVQAGGSLRLSCAASRLTFYGYGMGWYRQAPGKERELVASITSGGNTYYADSVKGRFTISRDNAKNTVYLRMNSLKPEDTAVYYCAVTAIALYYSSGYYWGQGTQVTVSS
polyreactivity (PSR sort gate): low polyreactivity

QVQLVESGGGLVQAGGSLRLSCAASRRIFGQNVMGWYRQAPGKERELVAAITSAGRTYYADSVKGRFTISRDNAKNTVYLQMNSLKPEDTAVYYCAAYVRRGFDWGHGTQVTVSS
polyreactivity (PSR sort gate): high polyreactivity

QVQLVESGGGLVQAGGSLRLSCAASRRIFSFNAMGWYRQAPGKDRELVAGSTYGGNTYYADSVKGSFTISRDNAKNTVYLQMNSLKPEDTAVYYCAAVRGGRHDYWGQGTQVTVSS
polyreactivity (PSR sort gate): low polyreactivity

QVQLVESGGGLVQAGGSLRLSCAASRSIFPYNVMGWYRQAPGTEMELVAAISTRGGRTYYADSVKGRFTISRDYAKNTVYLQMNSLKPEDTAVYYCATAGGPYSDSGYYWGHGTQVTVSS
polyreactivity (PSR sort gate): high polyreactivity

QVQLVESGGGLVQAGGSLRLSCAASRSIFYRYAMGWYRQEPGKERELVAAISRSGGTTYYADSVKGRFTISRDNAKNTVYLQMNSQKPEDTAVYYCAARVFHPYSTDPFYYWGQGTQVTVSS
polyreactivity (PSR sort gate): high polyreactivity

QVQLVESGGGLVQAGGSLRLSCAASRSTFPRYAMGWSRQAPGKERELVAAISSSGRTYYADSVKGRFTISRDNAKNTVYLQMNSLKPEDTAVYYCNAPVARGEASYYWGQGTEVTVSS
polyreactivity (PSR sort gate): high polyreactivity

QVQLVESGGGLVQAGGSLRLSCAASRSTFSGNAMGWYIQAPGKERELVATITSDGTTYYADSVKGRFTISRDNAKNNVYLLMNSLKPEDTAVYYCAARYTAYRDDYWGQGTHVTVSS
polyreactivity (PSR sort gate): high polyreactivity

QVQLVESGGGLVQAGGSLRLSCAASSIFRTYAMGWYRQAPGKERELVAAITWSGASTNYADSVKGRFTISRDNAKNTVYLQMNSLKPEDTAVYYCNADWRYYPSFKYYYWGQGTQVTVSS
polyreactivity (PSR sort gate): high polyreactivity

QVQLVESGGGLVQAGGSLRLSCAASVFIFDTYTMGWYRQAPGKERELVAAITGSGVNTYYADSVKGRFTISRDNAKNTVYLQMNSLKPEDTAVYYCAARRKNRRDYDYYYWGQGTQVTVSS
polyreactivity (PSR sort gate): high polyreactivity

QVQLVESGGGLVQAGGSLRLSCAASVFIFGLYVMGWYRQAPGKERELVAAITFNGGSTYADSVKGRFTISRDNAKNTVYLQMNSLKPEDTAVYYCNAGRAVYRYWYKYVYWGQGTQVTVSS
polyreactivity (PSR sort gate): high polyreactivity

QVQLVESGGGLVQAGGSLRLSCAASVFLPYTMGWYRQAPGKERELVAAITRGGSTYYADSVKGRFTISRDNAKNTVYLQMNSLKPEDTAVYYCAKRSTFAWRGYDYWGQGTQVTVSS
polyreactivity (PSR sort gate): high polyreactivity

QVQLVESGGGLVQAGGSLRLSCAASVFTFISYAMGRYRQAPGKEREFVAAITRGGGSTYYADSVKGRFTISRDNAKNTVYLQMNSLKPEDTAVYYCAADPQSTIRDYWGQGTQVTVSS
polyreactivity (PSR sort gate): high polyreactivity

QVQLVESGGGLVQAGGSLRLSCAASVFTFKINGMGWYRQAPGKEREFVATIRTSTGRTYYADSVKGRFTISRDNAKNTVYLQMNSLKPEDTAVYYCDTRVRQGNTHPNGKSDDYWGQGTQVTVSS
polyreactivity (PSR sort gate): high polyreactivity

QVQLVESGGGLVQAGGSLRLSCAASVFTFVRYSMGWYRQAPGKERELVAAISSGGRTYYADSVKGRFTISRDNAKYTVYLQMNSLKPEDTAVYYCAADTKFGYGYWGQGTQVNVSS
polyreactivity (PSR sort gate): high polyreactivity

QVQLVESGGGLVQAGGSLRLSCAASVIIISYYAIGWYRQAPGKERELVAAITRGGGRTYYADSVKGRFTISRDNAKNTVYLQMNSLKPEDTAVYYCKALSRYVENDYWGQGTQVTVSS
polyreactivity (PSR sort gate): high polyreactivity

QVQLVESGGGLVQAGGSLRLSCAASVRIFAKYAMGWYRQAPGKERELVAAITSGGRTYYADSVKGRFTISRDNAKNTVYLPMNSLKPEDTAVYYCNAVPKSRDWQSYGSWGQGTQVTVSS
polyreactivity (PSR sort gate): high polyreactivity

QVQLVESGGGLVQAGGSLRLSCAASVRIFGSNVMGWYRQAPGKERELVASISSGGTTYYADSVKGRFTISRDNAKYTVYLQMNSLKPEDTAVYYCAKQWTRIYQYRWYPGTRTGYDYWGQGTQVTVSS
polyreactivity (PSR sort gate): high polyreactivity

QVQLVESGGGLVQAGGSLRLSCAASVRIFVYNTMGWYRQAPGKERELVAAINYSGGSTYYADSVKGRFTISRDNAKNTVYLQMNSLKPEDTAVYYCAVKLRSRAGTSYGYWGQGTQVTVSS
polyreactivity (PSR sort gate): high polyreactivity

QVQLVESGGGLVQAGGSLRLSCAASVRSFRWYTMGWYRQAPGKERELVATISWRGGSTSYADSVKGRFTISRDNAKNTVYLQMNSLKPEDNAVYYCNAVYLWWAYDYWGQGTQVTVSS
polyreactivity (PSR sort gate): high polyreactivity
